{"source": "patent US20120114652A1", "binders": {"B1": {"name": "mouse PAI-1 (protein)", "chain": "ALPLRESHTAHQATDFGVKVFQQVVQASKDRNVVFSPYGVSSVLAMLQMTTAGKTRRQIQDAMGFKVNEKGTAHALRQLSKELMGPWNKNEISTADAIFVQRDLELVQGFMPHFFKLFQTMVKQVDFSEVERARFIINDWVERHTKGMINDLLAKGAVDELTRLVLVNALYFSGQWKTPFLEASTHQRLFHKSDGSTVSVPMMAQSNKFNYTEFTTPDGLEYDVVELPYQGDTLSMFIAAPFEKDVHLSALTNILDAELIRQWKGNMTRLPRLLILPKFSLETEVDLRGPLEKLGMPDMFSATLADFTSLSDQEQLSVAQALQKVRIEVNESGTVASSSTAFVISARMAPTEMVIDRSFLFVVRHNPTETILFMGQVMES"}, "B2": {"name": "PICK167_A01 scFv (scFv)", "scFv": "QVQLQQSGAEVKKPGSSVKVSCKASGGTFSSYAISWVRQAPGQRLEWMGGIIPTFGTANYAQKFQGRVTITADESTSTAYMELSGLRSEDTAVYYCARERRQWLEGHFDYWGRGTPVTVSSGGGGSGGGGSGGGGSDIQMTQSPSFLSASIGDRVTITCRASEGIYHNLAWYQQKPGKAPKLLIYKASSLASGAPSRFSGSRSGTDFTLTISSLQPDDFATYYCQQYSNYPLTFGGGTKLEIKR"}, "B3": {"name": "rat PAI-1 (protein)", "chain": "SPLPESHTAQQATNFGVKVFQHVVQASKDRNVVFSPYGVSSVLAMLQLTTAGKTRQQIQDAMGFNISERGTAPALRKLSKELMGSWNKNEISTADAIFVQRDLELVQGFMPHFFKLFRTTVKQVDFSEVERARFIINDWVERHTKGMISDLLAKGAVNELTRLVLVNALYFNGQWKTPFLEASTHQRLFHKSDGSTISVPMMAQNNKFNYTEFTTPDGHEYDILELPYHGETLSMFIAAPFEKDVPLSAITNILDAELIRQWKSNMTRLPRLLILPKFSLETEVDLRGPLEKLGMTDIFSSTQADFTSLSDQEQLSVAQALQKVKIEVNESGTVASSSTAILVSARMAPTEMVLDRSFLFVVRHNPTETILFMGQLMEP"}}, "key": {"[1]": {"target": "Antibody 16, IgG1, not germlined", "assay": "competition binding assay: Antibody 16 IgG adsorbed to the plate, biotinylated active human PAI-1 at about its KD, dilution series of the unlabelled competitor (the varied molecule), detection with streptavidin-Europium"}, "[2]": {"target": "T1, rat PAI-1 (rat) (UniProt P20961)", "T1 sequence": "B3 chain", "assay": "cell-based or functional assay"}, "[3]": {"target": "T2, mouse PAI-1 (mouse) (UniProt P22777)", "T2 sequence": "B1 chain", "assay": "cell-based or functional assay"}, "[4]": {"target": "human PAI-1, active, wild-type, non-glycosylated (E. coli-derived) (human) (UniProt P05121)", "assay": "cell-based or functional assay"}, "[5]": {"target": "cynomolgus PAI-1 (cynomolgus)", "assay": "cell-based or functional assay"}}}
{"binder": "B1", "values": [{"measurement": "IC50 (read off the curve)", "setting": "[1]", "result": 5, "unit": "nM"}]}
{"binder": "B2", "values": [{"measurement": "IC50, HT1080 plasminogen activation assay", "setting": "[2]", "result": 49, "unit": "nM"}, {"measurement": "IC50, PAI-1:tPA functional assay", "setting": "[2]", "result": 2.98, "unit": "nM"}, {"measurement": "pIC50, HT1080 plasminogen activation assay", "setting": "[2]", "result": 7.31}, {"measurement": "IC50, HT1080 plasminogen activation assay", "setting": "[3]", "result": 25, "unit": "nM"}, {"measurement": "pIC50, HT1080 plasminogen activation assay", "setting": "[3]", "result": 7.6}, {"measurement": "IC50, HT1080 plasminogen activation assay", "setting": "[4]", "result": 22, "unit": "nM"}, {"measurement": "IC50, PAI-1:tPA functional assay", "setting": "[4]", "result": 3.2, "unit": "nM"}, {"measurement": "pIC50, HT1080 plasminogen activation assay", "setting": "[4]", "result": 7.65}, {"measurement": "IC50, PAI-1:tPA functional assay", "setting": "[5]", "result": 1.02, "unit": "nM"}]}
{"binder": "B3", "values": [{"measurement": "IC50 (read off the curve)", "setting": "[1]", "result": 2, "unit": "nM"}]}
